Biological target: T1, human CD147 (human, UniProt P35613)
T1 chain: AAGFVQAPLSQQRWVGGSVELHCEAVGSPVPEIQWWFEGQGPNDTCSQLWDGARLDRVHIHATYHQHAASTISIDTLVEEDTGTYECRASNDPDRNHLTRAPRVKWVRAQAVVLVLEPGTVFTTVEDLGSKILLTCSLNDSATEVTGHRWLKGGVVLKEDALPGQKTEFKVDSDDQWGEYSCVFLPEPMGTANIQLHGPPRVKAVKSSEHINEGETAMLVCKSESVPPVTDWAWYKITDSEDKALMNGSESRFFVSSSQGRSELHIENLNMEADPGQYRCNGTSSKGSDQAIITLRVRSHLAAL
Assay: ELISA

B1: mouse 3A11 (antibody, V domains shown)
VH: EVQLVESGGGLVQPGGSLRLSCAASGFTFSNYWMDWVRQAPGKGLEWVGEIRLKSYNYATHYAASVKGRFTISRDDSKNSVYLQMNSLKTEDTAVYYCTAAGTDYWGQGTLVTVSS
VL: SIVMTQIPKILLVSAGDRVTITCKASQSVRTDVAWYQQKPGQSPKLLIYYSSNRYTGVPDRFTGSGYGTDFTFTISTVQAEDLAVYFCQQDYSSPFTFGSGTKLEIK
**Q.** For B1, which Kd is on record?
**A.** 0.293 nM

Source: patent publication US20180303952 (published 2018)
